{
  "source": "patent US7259247",
  "target": "CD28 (UniProt P10747)",
  "sequence (P10747 19-220 limits assumed)": "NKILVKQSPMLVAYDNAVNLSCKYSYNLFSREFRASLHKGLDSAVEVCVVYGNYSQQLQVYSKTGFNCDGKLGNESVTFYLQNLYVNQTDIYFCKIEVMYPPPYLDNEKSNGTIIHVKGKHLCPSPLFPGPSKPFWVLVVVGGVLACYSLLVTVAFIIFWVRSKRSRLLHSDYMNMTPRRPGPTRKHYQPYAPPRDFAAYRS",
  "assay": "cell-based or functional assay",
  "data": [
    {"substance": "anti-CD28 antibody 9.3", "values": [
      {"measurement": "expression of other activation antigens on CD4+ T cells, suboptimal OKT3, plate-bound antibody costimulation", "value": "4 to 100", "unit": "fold"}
    ]}
  ]
}
